Target: TmHU (HU protein) (Thermotoga maritima) (UniProt P36206)
Assay: SPR
Details: transition midpoint of Hill curve, 50 mM sodium phosphate pH 7.5, 100 mM NaCl

UniProt P36206, sequence (P36206 other isoform, or with tags, fused parts or gaps): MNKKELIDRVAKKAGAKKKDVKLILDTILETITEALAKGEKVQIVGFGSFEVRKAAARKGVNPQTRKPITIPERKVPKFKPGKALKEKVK

Substance | Kd (Hill coefficient 7.6) [nM] | Kd (Hill coefficient 1.3) [nM]
56 bp dsDNA fragment | 73 | 
23 bp dsDNA fragment |  | 73

— patent US20050170504
